Test results as given in article PMC9897471.
Read-outs that look alike come from different tables or passages of the source.

B1: non-rDNA bottom ssDNA (ssDNA)
DNA: ATCCCAGCACCAGATTCAGCAATTAAGCTCTAAGCCATGAATTCAAATGACCTCTTATCA
B2: non-rRNA bottom ssRNA (ssRNA)
RNA: AUCCCAGCACCAGAUUCAGCAAUUAAGCUCUAAGCCAUGAAUUCAAAUGACCUCUUAUCA
B3: non-rRNA dsRNA (bottom/top) (dsRNA)
RNA 1: B2 RNA
RNA 2: UGAUAAGAGGUCAUUUGAAUUCAUGGCUUAGAGCUUAAUUGCUGAAUCUGGUGCUGGGAU

What was measured:
GST-BRCA1 BRCT WT [1] = target: T1, GST-BRCA1 BRCT WT (UniProt P38398 1582-1863); experiment: EMSA
T1 sequence (P38398 1582-1863): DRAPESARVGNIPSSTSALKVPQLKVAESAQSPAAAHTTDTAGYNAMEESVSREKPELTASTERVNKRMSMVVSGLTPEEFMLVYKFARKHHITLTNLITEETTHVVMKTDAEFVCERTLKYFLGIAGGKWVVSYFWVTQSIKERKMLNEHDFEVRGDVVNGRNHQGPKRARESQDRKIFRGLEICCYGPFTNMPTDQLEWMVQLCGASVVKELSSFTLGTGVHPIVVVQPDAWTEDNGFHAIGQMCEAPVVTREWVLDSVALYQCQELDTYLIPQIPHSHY

GST-BRCA1 BRCT WT [2] = target: T1, GST-BRCA1 BRCT WT; experiment: EMSA; remark: listed apart in the source

| Binder | binding result (GST-BRCA1 BRCT WT [1]) | binding result (GST-BRCA1 BRCT WT [2]) |
| --- | --- | --- |
| B1 | binds |  |
| B2 |  | binds |
| B3 |  | no binding |
